Target: Acinetobacter sp. Ver3 iron superoxide dismutase (^AV3SodB) (Acinetobacter sp. Ver3)
Test: crystal structure

Question: For “Acinetobacter sp. Ver3 iron superoxide dismutase (^AV3SodB) (enzyme)”, which stoichiometry N is on record?
Answer: 2

— paper doi:10.1101/2021.10.11.463953
